This is an account of results in article PMC11928938.

What all share (assay): SEC; size-exclusion chromatography on Superdex 200 of purified recombinant hGlyRS; dimer and monomer forms fractionated; dimer to monomers
Background: Size exclusion chromatography separates by hydrodynamic size, large species first.

Assay [1] deals with human glycyl-tRNA synthetase H418R variant (hGlyRS-H418R), recombinant (human).
The target of assay [2] is human glycyl-tRNA synthetase S211F variant (hGlyRS-S211F), recombinant (human).
Assay [3] addresses human glycyl-tRNA synthetase, wild type (hGlyRS-WT), recombinant (human).

The term stoichiometry N denotes the number of molecules, sites or subunits per partner or assembly.

Consider “human glycyl-tRNA synthetase H418R variant (hGlyRS-H418R), recombinant (enzyme)”, for which, in assay [1], the dimer:monomer (D:M) ratio, dimer part (dimer parts against 3.0 monomer parts) was 7 and the stoichiometry N was 2.

For the substance “human glycyl-tRNA synthetase S211F variant (hGlyRS-S211F), recombinant (enzyme)”, in assay [2], the dimer:monomer (D:M) ratio, dimer part (dimer parts against 6.2 monomer parts) was 3.8.

As for “human glycyl-tRNA synthetase, wild type (hGlyRS-WT), recombinant (enzyme)”, in assay [3], the dimer:monomer (D:M) ratio, dimer part (dimer parts against 0.9 monomer parts) was found to be 9.1 and the stoichiometry N was determined as 2.
